Reference: patent US20230128688A1, “DIRECTED CONJUGATION TECHNOLOGIES” (KLEO PHARMACEUTICALS, INC., priority 2019, published 2023)

Target: T cell receptor (TCR)/CD3 on effector Jurkat T cells
Test: cell-based or functional assay

- EC50 of T cell activation (NFAT-RE luciferase luminescence in Jurkat effector cells), effector only condition: > 10 nM
- EC50 of T cell activation (NFAT-RE luciferase luminescence in Jurkat effector cells), effector+target (Daudi) condition: 0.1 nM
Substance: III-1 (CD20×CD3; rituximab×SP34 scFv) (bispecific antibody)
